Values joined by “and” are separate entries in the source; they are usually repeats but may differ in a detail not shown here. Equal entries are not always repeated.
How the values were obtained:
[1] = molecular target: JRFL envelope (gp120 monomer released from lysed pseudovirus) (HIV-1) (UniProt P20871); assay: antigen capture ELISA, mAb 0.8 ug/ml, plate 1
[2] = molecular target: 16055 envelope (gp120 monomer released from lysed pseudovirus) (HIV-1); assay: antigen capture ELISA, mAb 0.8 ug/ml, plate 1
[3] = molecular target: JRFL envelope (gp120 monomer released from lysed pseudovirus) (HIV-1) (UniProt P20871); assay: antigen capture ELISA, mAb 0.3 ug/ml, plate 2
[4] = molecular target: 16055 envelope (gp120 monomer released from lysed pseudovirus) (HIV-1); assay: antigen capture ELISA, mAb 0.3 ug/ml, plate 2
[5] = molecular target: HIV-1 envelope of gp160 clone B-Chronic-014.c02 (HIV-1); assay: capture ELISA, plate 1, mAb 7.5 ug/ml
[6] = molecular target: HIV-1 envelope of gp160 clone B-Acute-010.c08 (HIV-1); assay: capture ELISA, plate 1, mAb 7.5 ug/ml
[7] = molecular target: HIV-1 JRCSF envelope (HIV-1) (UniProt P20871); assay: capture ELISA, plate 1, mAb 7.5 ug/ml
[8] = molecular target: HIV-1 envelope of gp160 clone B-Acute-009-c08 (HIV-1); assay: capture ELISA, plate 1, mAb 7.5 ug/ml
[9] = molecular target: HIV-1 envelope clone G-011.c02 (multiclade gp160 clone panel) (HIV-1); assay: capture ELISA, plate 1, mAb 7.5 ug/ml
[10] = molecular target: HIV-1 16055 envelope (HIV-1); assay: capture ELISA, plate 1, mAb 7.5 ug/ml
[11] = molecular target: HIV-1 envelope clone G-011.c05 (multiclade gp160 clone panel) (HIV-1); assay: capture ELISA, plate 1, mAb 7.5 ug/ml
[12] = molecular target: HIV-1 envelope clone F1-002.c11 (multiclade gp160 clone panel) (HIV-1); assay: capture ELISA, plate 1, mAb 7.5 ug/ml
[13] = molecular target: JRFL envelope (gp120 monomer released from lysed pseudovirus) (HIV-1) (UniProt P20871); assay: antigen capture ELISA, mAb 0.3 ug/ml, plate 1
[14] = molecular target: 16055 envelope (gp120 monomer released from lysed pseudovirus) (HIV-1); assay: antigen capture ELISA, mAb 0.3 ug/ml, plate 1
[15] = molecular target: JRFL envelope (gp120 monomer released from lysed pseudovirus) (HIV-1) (UniProt P20871); assay: antigen capture ELISA, mAb 7.5 ug/ml, plate 2
[16] = molecular target: 16055 envelope (gp120 monomer released from lysed pseudovirus) (HIV-1); assay: antigen capture ELISA, mAb 7.5 ug/ml, plate 2
[17] = molecular target: JRFL envelope (gp120 monomer released from lysed pseudovirus) (HIV-1) (UniProt P20871); assay: antigen capture ELISA, mAb 0.8 ug/ml, plate 2
[18] = molecular target: 16055 envelope (gp120 monomer released from lysed pseudovirus) (HIV-1); assay: antigen capture ELISA, mAb 0.8 ug/ml, plate 2
[19] = molecular target: JRFL envelope (gp120 monomer released from lysed pseudovirus) (HIV-1) (UniProt P20871); assay: antigen capture ELISA, mAb 2.5 ug/ml, plate 2
[20] = molecular target: 16055 envelope (gp120 monomer released from lysed pseudovirus) (HIV-1); assay: antigen capture ELISA, mAb 2.5 ug/ml, plate 2
[21] = molecular target: HIV-1 envelope of gp160 clone B-Acute-009-c08 (HIV-1); assay: capture ELISA, original data
[22] = molecular target: JRFL envelope (gp120 monomer released from lysed pseudovirus) (HIV-1) (UniProt P20871); assay: antigen capture ELISA, mAb 7.5 ug/ml, plate 1
[23] = molecular target: 16055 envelope (gp120 monomer released from lysed pseudovirus) (HIV-1); assay: antigen capture ELISA, mAb 7.5 ug/ml, plate 1
[24] = molecular target: JRFL envelope (gp120 monomer released from lysed pseudovirus) (HIV-1) (UniProt P20871); assay: antigen capture ELISA, mAb 2.5 ug/ml, plate 1
[25] = molecular target: 16055 envelope (gp120 monomer released from lysed pseudovirus) (HIV-1); assay: antigen capture ELISA, mAb 2.5 ug/ml, plate 1

## PG16 (antibody)
[1]
  ELISA OD: 0.064 OD and 0.071 OD
[2]
  ELISA OD: 0.129 OD and 0.11 OD
[3]
  ELISA OD: 0.065 OD and 0.075 OD
[4]
  ELISA OD: 0.107 OD and 0.112 OD
[5]
  ELISA OD: 0.476 OD
[6]
  ELISA OD: 0.272 OD
[7]
  ELISA OD: 0.248 OD and 0.287 OD
[8]
  ELISA OD: 0.083 OD
[9]
  ELISA OD: 0.069 OD
[10]
  ELISA OD: 0.215 OD and 0.16 OD
[11]
  ELISA OD: 0.158 OD
[12]
  ELISA OD: 0.168 OD
[13]
  ELISA OD: 0.063 OD and 0.097 OD
[14]
  ELISA OD: 0.101 OD and 0.122 OD
[15]
  ELISA OD: 0.111 OD and 0.136 OD
[16]
  ELISA OD: 0.155 OD and 0.143 OD
[17]
  ELISA OD: 0.063 OD and 0.061 OD
[18]
  ELISA OD: 0.156 OD and 0.105 OD
[19]
  ELISA OD: 0.081 OD and 0.096 OD
[20]
  ELISA OD: 0.195 OD and 0.122 OD

## PGT145 (antibody)
[21]
  ELISA OD: 0.219 OD
[5]
  ELISA OD: 0.106 OD
[6]
  ELISA OD: 0.179 OD
[7]
  ELISA OD: 0.071 OD and 0.084 OD
[8]
  ELISA OD: 0.109 OD
[9]
  ELISA OD: 0.129 OD
[10]
  ELISA OD: 0.085 OD and 0.077 OD
[11]
  ELISA OD: 0.133 OD

## PG9 (antibody)
[5]
  ELISA OD: 2.35 OD
[6]
  ELISA OD: 0.547 OD
[7]
  ELISA OD: 0.411 OD and 0.454 OD
[8]
  ELISA OD: 0.115 OD
[9]
  ELISA OD: 0.108 OD
[10]
  ELISA OD: 0.519 OD and 0.367 OD
[11]
  ELISA OD: 0.37 OD

## PGV04 (antibody)
[1]
  ELISA OD: 0.673 OD and 0.722 OD
[2]
  ELISA OD: 0.055 OD and 0.059 OD
[3]
  ELISA OD: 0.395 OD and 0.44 OD
[4]
  ELISA OD: 0.079 OD and 0.122 OD
[5]
  ELISA OD: 4 OD
[6]
  ELISA OD: 2.65 OD
[7]
  ELISA OD: 2.15 OD and 2.33 OD
[8]
  ELISA OD: 0.237 OD
[9]
  ELISA OD: 0.865 OD
[11]
  ELISA OD: 0.451 OD
[12]
  ELISA OD: 0.28 OD
[13]
  ELISA OD: 0.344 OD and 0.34 OD
[14]
  ELISA OD: 0.054 OD and 0.065 OD
[22]
  ELISA OD: 1.94 OD and 1.84 OD
[23]
  ELISA OD: 0.071 OD and 0.068 OD
[24]
  ELISA OD: 1.17 OD and 1.25 OD
[25]
  ELISA OD: 0.066 OD and 0.071 OD
[15]
  ELISA OD: 2.49 OD and 2.36 OD
[16]
  ELISA OD: 0.108 OD and 0.113 OD
[17]
  ELISA OD: 0.796 OD and 0.763 OD
[18]
  ELISA OD: 0.073 OD and 0.071 OD
[19]
  ELISA OD: 1.55 OD and 1.51 OD
[20]
  ELISA OD: 0.126 OD and 0.095 OD

## PGT151 (antibody)
[21]
  ELISA OD: 0.264 OD
[5]
  ELISA OD: 0.525 OD
[6]
  ELISA OD: 0.206 OD
[7]
  ELISA OD: 0.073 OD and 0.086 OD
[8]
  ELISA OD: 0.11 OD
[9]
  ELISA OD: 0.121 OD
[10]
  ELISA OD: 0.08 OD and 0.078 OD
[11]
  ELISA OD: 0.089 OD
[12]
  ELISA OD: 0.087 OD

From patent publication US20150065381A1
